Assays:
human B7H4 [1] = biological target: T1, human B7H4 (human, UniProt Q7Z7D3 25-282); experiment: flow cytometry on human B7H4-transfected HEK293T cells, PE anti-human IgG Fc secondary antibody
T1 construct: whole, on cells; also called Human B7H4-293T; B7S1
T1 sequence (looked up): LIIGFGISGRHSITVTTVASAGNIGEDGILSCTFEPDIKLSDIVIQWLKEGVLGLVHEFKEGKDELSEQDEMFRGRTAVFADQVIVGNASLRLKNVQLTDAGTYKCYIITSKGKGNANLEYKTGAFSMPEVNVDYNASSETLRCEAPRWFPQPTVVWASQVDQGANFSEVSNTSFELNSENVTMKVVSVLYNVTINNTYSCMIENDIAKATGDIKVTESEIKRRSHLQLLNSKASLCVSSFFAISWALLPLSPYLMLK

human B7H4 [2] = biological target: T1, human B7H4; experiment: cell-based or functional assay
human ICOSLG (B7-H2) = biological target: T2, human ICOSLG (B7-H2) (human, UniProt O75144 19-302); experiment: flow cytometry on HEK293T cells stably expressing the human protein, one concentration
T2 construct: whole, on cells
T2 sequence (looked up): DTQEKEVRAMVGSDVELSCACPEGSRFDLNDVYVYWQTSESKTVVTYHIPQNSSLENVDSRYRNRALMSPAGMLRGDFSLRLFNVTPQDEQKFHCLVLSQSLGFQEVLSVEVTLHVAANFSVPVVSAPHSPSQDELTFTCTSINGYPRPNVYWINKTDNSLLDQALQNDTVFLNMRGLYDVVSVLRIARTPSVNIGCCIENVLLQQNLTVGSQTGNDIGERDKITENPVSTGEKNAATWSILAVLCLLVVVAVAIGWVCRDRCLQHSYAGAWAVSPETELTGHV

human VISTA (B7-H5) = biological target: T3, human VISTA (B7-H5) (human, UniProt Q9H7M9 33-311); experiment: as above
T3 construct: whole, on cells
T3 sequence (looked up): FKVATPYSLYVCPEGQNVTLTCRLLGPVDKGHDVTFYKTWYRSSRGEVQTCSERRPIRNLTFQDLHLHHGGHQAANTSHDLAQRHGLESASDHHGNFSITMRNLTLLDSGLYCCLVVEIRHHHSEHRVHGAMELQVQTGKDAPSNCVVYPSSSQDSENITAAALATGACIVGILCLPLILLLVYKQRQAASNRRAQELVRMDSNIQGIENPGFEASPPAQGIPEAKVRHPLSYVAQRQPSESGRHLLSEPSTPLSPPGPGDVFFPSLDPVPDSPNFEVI

human CD86 (B7-2) = biological target: T4, human CD86 (B7-2) (human, UniProt P42081 24-329); experiment: as above
T4 construct: whole, on cells
T4 sequence (looked up): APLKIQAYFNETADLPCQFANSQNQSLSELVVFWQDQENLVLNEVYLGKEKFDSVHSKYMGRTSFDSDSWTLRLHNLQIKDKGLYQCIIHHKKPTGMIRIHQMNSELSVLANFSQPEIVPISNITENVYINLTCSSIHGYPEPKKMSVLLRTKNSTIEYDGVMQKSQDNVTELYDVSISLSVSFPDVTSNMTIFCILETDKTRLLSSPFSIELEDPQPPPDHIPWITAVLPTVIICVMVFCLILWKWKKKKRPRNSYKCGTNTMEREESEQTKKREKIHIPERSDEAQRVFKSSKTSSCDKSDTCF

human PD-L2 (B7-DC) = biological target: T5, human PD-L2 (B7-DC) (human, UniProt Q9BQ51 20-273); experiment: as above
T5 construct: whole, on cells; also called CD273
T5 sequence (looked up): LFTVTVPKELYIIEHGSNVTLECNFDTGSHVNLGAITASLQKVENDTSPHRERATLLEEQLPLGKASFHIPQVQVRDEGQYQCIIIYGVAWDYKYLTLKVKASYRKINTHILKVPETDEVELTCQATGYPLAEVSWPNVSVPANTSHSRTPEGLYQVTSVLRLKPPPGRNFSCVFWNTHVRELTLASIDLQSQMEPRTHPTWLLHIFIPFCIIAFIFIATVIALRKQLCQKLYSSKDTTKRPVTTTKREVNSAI

human PD-L1 (B7-H1) = biological target: T6, human PD-L1 (B7-H1) (human, UniProt Q9NZQ7 19-290); experiment: as above
T6 construct: whole, on cells; also called CD274

human CD80 (B7-1) = biological target: T7, human CD80 (B7-1) (human, UniProt P33681 35-288); experiment: as above
T7 construct: whole, on cells
T7 sequence (looked up): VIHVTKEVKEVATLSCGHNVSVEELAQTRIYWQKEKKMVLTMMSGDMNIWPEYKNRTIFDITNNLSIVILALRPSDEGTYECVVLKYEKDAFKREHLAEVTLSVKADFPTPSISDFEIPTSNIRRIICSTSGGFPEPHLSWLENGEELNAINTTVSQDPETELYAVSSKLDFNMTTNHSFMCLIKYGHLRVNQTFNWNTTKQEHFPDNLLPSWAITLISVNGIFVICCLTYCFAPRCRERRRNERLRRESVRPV

human CD276 (B7-H3) = biological target: T8, human CD276 (B7-H3) (human, UniProt Q5ZPR3 29-534); experiment: as above
T8 construct: whole, on cells
T8 sequence (looked up): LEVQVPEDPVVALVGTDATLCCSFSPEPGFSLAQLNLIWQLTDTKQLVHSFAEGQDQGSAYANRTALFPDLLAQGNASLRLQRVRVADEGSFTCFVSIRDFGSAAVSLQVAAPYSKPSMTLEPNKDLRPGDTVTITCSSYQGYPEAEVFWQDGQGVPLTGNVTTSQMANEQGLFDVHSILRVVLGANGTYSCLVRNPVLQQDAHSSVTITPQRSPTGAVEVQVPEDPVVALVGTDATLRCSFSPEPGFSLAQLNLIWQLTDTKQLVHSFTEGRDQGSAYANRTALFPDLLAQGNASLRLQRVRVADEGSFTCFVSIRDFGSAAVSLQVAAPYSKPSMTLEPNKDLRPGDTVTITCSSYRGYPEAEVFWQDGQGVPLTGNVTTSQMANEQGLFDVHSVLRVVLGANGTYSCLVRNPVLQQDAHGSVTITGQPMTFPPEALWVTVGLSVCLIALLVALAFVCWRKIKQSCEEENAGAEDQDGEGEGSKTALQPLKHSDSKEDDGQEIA

T6 sequence (Q9NZQ7 19-290): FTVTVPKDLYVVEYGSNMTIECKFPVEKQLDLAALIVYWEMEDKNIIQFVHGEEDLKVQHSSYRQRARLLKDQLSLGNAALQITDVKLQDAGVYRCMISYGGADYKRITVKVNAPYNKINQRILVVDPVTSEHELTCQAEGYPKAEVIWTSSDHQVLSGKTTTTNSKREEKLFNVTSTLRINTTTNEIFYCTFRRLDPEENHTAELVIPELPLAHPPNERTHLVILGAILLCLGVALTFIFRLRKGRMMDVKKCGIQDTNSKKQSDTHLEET

B1: antibody-drug conjugate DB1001-X2 (antibody, DAR 5.4, V domains shown)
VH: QVQLVESGGGVVQPGRSLRLSCAASGFTFRSFGMHWVRQAPGKGLEWVAVISYDASNEYYADSVKGRFIISRDNSKDTLYLQMNSLRAGDTAVYYCAKGGALRWYFAYWGQGTLVTVSS
VL: EIVMTQSPATLSVSPGERATLSCRASQSISSNLGWYQQKPGQAPRLLIYGASTRATGIPARFSGSGSGTEFTLTISSLQSEDFAVYYCQQYRSWPPLTFGGGTKVEIKR
modifications: linker-cytotoxin X2 (payload P-III-30) coupled after TCEP reduction of the antibody; drug-to-antibody ratio (DAR) of 5.4; conjugation residues not stated
notes: also called anti-B7H4 ADC DB1001-X2
Which EC50 (human B7H4 [1]) does the source give for B1 here?
Its EC50 is 2.18 nM.

And the “IC50 (nM), in vitro proliferation inhibition of MDA-MB-468 cells (CTG, 7 days)” value (human B7H4 [2])?
Its value is 50.7 nM.

Does B1 bind (human ICOSLG (B7-H2))?
Result: no binding (tested: 100 nM or 300 nM)

Does B1 bind (human VISTA (B7-H5))?
Result: no binding (tested: 100 nM or 300 nM)

Does B1 bind (human CD86 (B7-2))?
Result: no binding (tested: 100 nM or 300 nM)

Does B1 bind (human PD-L2 (B7-DC))?
Result: no binding (tested: 100 nM or 300 nM)

Does B1 bind (human PD-L1 (B7-H1))?
Result: no binding (tested: 100 nM or 300 nM)

Does B1 bind (human CD80 (B7-1))?
Result: no binding (tested: 100 nM or 300 nM)

Does B1 bind (human CD276 (B7-H3))?
Result: no binding (tested: 100 nM or 300 nM)

— patent US20250032630A1, “B7H4 ANTIBODY-DRUG CONJUGATE AND USE THEREOF” (Duality Biologics (Suzhou) Co., Ltd., priority 2022, published 2025)
